Test results published in the supplement of paper PMC10567573.

B1: SMTNL2 (parent)
chain: AFTMAENLANCERLIEVEDMMVMG

Variants of: B1
Assay: protein stability index of a GFP-peptide fusion (GPS, HEK-293T) (PSI 1-6); higher = more stable
Details: c terminus: a fixed tail appended
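Further: lentivirally expressed fusions sorted by FACS into six bins by GFP to DsRed ratio, PSI derived from sequencing read proportions per bin multiplied by bin number.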

Row | Variant | protein stability index
1 | AFTMAENLAPCERLIEVEDMMVMG | 3.37
2 | AFTMAENLAECERLIEVEDMMVMG | 2.01
3 | AFTMAENLARCERLIEVEDMMVMG | 2.24
4 | AFTMAENLAGCERLIEVEDMMVMG | 2.79
5 | AFTMAENLAVCERLIEVEDMMVMG | 2
6 | AFTMAENLAKCERLIEVEDMMVMG | 2.48
7 | AFTMAENLAICERLIEVEDMMVMG | 1.86
8 | AFTMAENLAACERLIEVEDMMVMG | 1.84
9 | AFTMAENLALCERLIEVEDMMVMG | 1.64
10 | AFTMAENLAFCERLIEVEDMMVMG | 2.53
11 | AFTMAENLADCERLIEVEDMMVMG | 2.01
12 | AFTMAENLAMCERLIEVEDMMVMG | 2.1
13 | AFTMAENLACCERLIEVEDMMVMG | 2
14 | AFTMAENLASCERLIEVEDMMVMG | 2.42
15 | AFTMAENLAHCERLIEVEDMMVMG | 2.19
16 | AFTMAENLAYCERLIEVEDMMVMG | 2.07
17 | AFTMAENLAWCERLIEVEDMMVMG | 1.68
18 | AFTMAENLAQCERLIEVEDMMVMG | 3.5
19 | AFTMAENLATCERLIEVEDMMVMG | 2.19
20 | AFTMAENLANCEMLIEVEDMMVMG | 2.56
21 | AFTMAENLANCEGLIEVEDMMVMG | 3.46
22 | AFTMAENLANCEALIEVEDMMVMG | 2.33
23 | AFTMAENLANCEKLIEVEDMMVMG | 2.67
24 | AFTMAENLANCENLIEVEDMMVMG | 3.75

Row | Variant | protein stability index
25 | AFTMAENLANCEVLIEVEDMMVMG | 1.49
26 | AFTMAENLANCEFLIEVEDMMVMG | 1.8
27 | AFTMAENLANCEYLIEVEDMMVMG | 2.17
28 | AFTMAENLANCEHLIEVEDMMVMG | 3.03
29 | AFTMAENLANCEELIEVEDMMVMG | 3.96
30 | AFTMAENLANCEQLIEVEDMMVMG | 3.17
31 | AFTMAENLANCEWLIEVEDMMVMG | 2.42
32 | AFTMAENLANCETLIEVEDMMVMG | 2.99
33 | AFTMAENLANCEPLIEVEDMMVMG | 3.62
34 | AFTMAENLANCESLIEVEDMMVMG | 3.15
35 | AFTMAENLANCEDLIEVEDMMVMG | 4.24
36 | AFTMAENLANCELLIEVEDMMVMG | 3.24
37 | AFTMAENLANCECLIEVEDMMVMG | 2.08
38 | AFTMAENLANCERLIEVEFMMVMG | 2.37
39 | AFTMAENLANCERLIEVENMMVMG | 2.63
40 | AFTMAENLANCERLIEVEKMMVMG | 3.26
41 | AFTMAENLANCERLIEVEAMMVMG | 2.36
42 | AFTMAENLANCERLIEVEHMMVMG | 1.28
43 | AFTMAENLANCERLIEVEGMMVMG | 2.52
44 | AFTMAENLANCERLIEVEPMMVMG | 1.71
45 | AFTMAENLANCERLIEVEEMMVMG | 1.48
46 | AFTMAENLANCERLIEYEDMMVMG | 2.47
47 | AFTMAENLANCERLIEWEDMMVMG | 2.09
48 | AFTMAENLANCERLIEMEDMMVMG | 2.04

Row | Variant | protein stability index
49 | AFTMAENLANCERLIEFEDMMVMG | 2.37
50 | AFTMAENLANCERLIETEDMMVMG | 3.14
51 | AFTMAENLANCERLIEGEDMMVMG | 3.71
52 | AFTMAENLANCERLIEQEDMMVMG | 2.43
53 | AFTMAENLANCERLIEPEDMMVMG | 4.04
54 | AFTMAENLANCERLIEEEDMMVMG | 2.97
55 | AFTMAENLANCERLIEIEDMMVMG | 2.16
56 | AFTMAENLANCERLIELEDMMVMG | 3.28
57 | AFTMAENLANCERLIEKEDMMVMG | 2.38
58 | AFTMAENLANCERLIEREDMMVMG | 2.88
59 | AFTMAENLANCERLIEAEDMMVMG | 2.54
60 | AFTMAENLANCERLIEDEDMMVMG | 3.57
61 | AFTMAENLANCERLIESEDMMVMG | 3.25
62 | AFTMAENLANCERLIEHEDMMVMG | 2.35
63 | AFTMAENLANCERLIECEDMMVMG | 1.98
64 | AFTMAENLANCERLIENEDMMVMG | 2.07
65 | AFTMAENLANVERLIEVEDMMVMG | 2.75
66 | AFTMAENLANMERLIEVEDMMVMG | 2.95
67 | AFTMAENLANHERLIEVEDMMVMG | 3.63
68 | AFTMAENLANLERLIEVEDMMVMG | 2.32
69 | AFTMAENLANFERLIEVEDMMVMG | 2.56
70 | AFTMAENLANNERLIEVEDMMVMG | 3.92
71 | AFTMAENLANQERLIEVEDMMVMG | 4.09
72 | AFTMAENLANSERLIEVEDMMVMG | 2.37

Row | Variant | protein stability index
73 | AFTMAENLANDERLIEVEDMMVMG | 4.07
74 | AFTMAENLANRERLIEVEDMMVMG | 3.34
75 | AFTMAENLANGERLIEVEDMMVMG | 3.23
76 | AFTMAENLANAERLIEVEDMMVMG | 2.21
77 | AFTMAENLANIERLIEVEDMMVMG | 2.3
78 | AFTMAENLANPERLIEVEDMMVMG | 3.49
79 | AFTMAENLANYERLIEVEDMMVMG | 2.51
80 | AFTMAENLANTERLIEVEDMMVMG | 2.21
81 | AFTMAENLANEERLIEVEDMMVMG | 3.9
82 | AFTMAENLANWERLIEVEDMMVMG | 2.21
83 | AFTMAENLANKERLIEVEDMMVMG | 3.59
84 | AFTMAENLANCERQIEVEDMMVMG | 3.12
85 | AFTMAENLANCERVIEVEDMMVMG | 2.47
86 | AFTMAENLANCERGIEVEDMMVMG | 3.96
87 | AFTMAENLANCERFIEVEDMMVMG | 2.62
88 | AFTMAENLANCERNIEVEDMMVMG | 4.2
89 | AFTMAENLANCERKIEVEDMMVMG | 3.89
90 | AFTMAENLANCERAIEVEDMMVMG | 3.33
91 | AFTMAENLANCERSIEVEDMMVMG | 3.08
92 | AFTMAENLANCERIIEVEDMMVMG | 1.87
93 | AFTMAENLANCERDIEVEDMMVMG | 4.59
94 | AFTMAENLANCERHIEVEDMMVMG | 3.86
95 | AFTMAENLANCERRIEVEDMMVMG | 3.4
96 | AFTMAENLANCERTIEVEDMMVMG | 3.5

Row | Variant | protein stability index
97 | AFTMAENLANCEREIEVEDMMVMG | 3.64
98 | AFTMAENLANCERMIEVEDMMVMG | 2.34
99 | AFTMAENLANCERPIEVEDMMVMG | 3.69
100 | AFTMAENLANCERWIEVEDMMVMG | 1.59
101 | AFTMAENLANCERCIEVEDMMVMG | 3.33
102 | AFTMAENLANCERYIEVEDMMVMG | 2.13
103 | AFTMAENLANCERLIEVGDMMVMG | 2.52
104 | AFTMAENLANCERLIEVFDMMVMG | 3.08
105 | AFTMAENLANCERLIEVKDMMVMG | 2.03
106 | AFTMAENLANCERLIEVWDMMVMG | 1.02
107 | AFTMAENLANCERLIEVPDMMVMG | 3.06
108 | AFTMAENLANCERLIEVIDMMVMG | 1.58
109 | AFTMAENLANCERLIEVYDMMVMG | 3.52
110 | AFTMAENLANCERLIEVRDMMVMG | 2.67
111 | AFTMAENLANCERLIEVSDMMVMG | 2.01
112 | AFTMAENLANCERLIEVHDMMVMG | 2.85
113 | AFTMAENLANCERLIEVDDMMVMG | 2.9
114 | AFTMAENLANCERLIEVMDMMVMG | 1.97
115 | AFTMAENLANCERLIEVQDMMVMG | 2.18
116 | AFTMAENLANCERLIEVLDMMVMG | 2.22
117 | AFTMAENLANCERLIEVNDMMVMG | 3.43
118 | AFTMAENLANCERLSEVEDMMVMG | 3.6
119 | AFTMAENLANCERLVEVEDMMVMG | 3.42
120 | AFTMAENLANCERLTEVEDMMVMG | 4.25

Row | Variant | protein stability index
121 | AFTMAENLANCERLLEVEDMMVMG | 2.82
122 | AFTMAENLANCERLREVEDMMVMG | 3.89
123 | AFTMAENLANCERLCEVEDMMVMG | 3.64
124 | AFTMAENLANCERLWEVEDMMVMG | 2.8
125 | AFTMAENLANCERLHEVEDMMVMG | 3.95
126 | AFTMAENLANCERLQEVEDMMVMG | 4.4
127 | AFTMAENLANCERLYEVEDMMVMG | 2.95
128 | AFTMAENLANCERLPEVEDMMVMG | 4.02
129 | AFTMAENLANCERLEEVEDMMVMG | 4.99
130 | AFTMAENLANCERLFEVEDMMVMG | 3.39
131 | AFTMAENLANCERLDEVEDMMVMG | 4.49
132 | AFTMAENLANCERLGEVEDMMVMG | 3.77
133 | AFTMAENLANCERLMEVEDMMVMG | 3
134 | AFTMAENLANCERLKEVEDMMVMG | 3.9
135 | AFTMAENLANCERLAEVEDMMVMG | 4
136 | AFTMAENLANCERLNEVEDMMVMG | 3.94
137 | AFTMAENLANCPRLIEVEDMMVMG | 2.37
138 | AFTMAENLANCLRLIEVEDMMVMG | 1.7
139 | AFTMAENLANCSRLIEVEDMMVMG | 2.92
140 | AFTMAENLANCWRLIEVEDMMVMG | 2.71
141 | AFTMAENLANCCRLIEVEDMMVMG | 1.55
142 | AFTMAENLANCVRLIEVEDMMVMG | 1.8
143 | AFTMAENLANCNRLIEVEDMMVMG | 2.93
144 | AFTMAENLANCHRLIEVEDMMVMG | 2.42

Row | Variant | protein stability index
145 | AFTMAENLANCARLIEVEDMMVMG | 1.75
146 | AFTMAENLANCQRLIEVEDMMVMG | 2.41
147 | AFTMAENLANCMRLIEVEDMMVMG | 2.54
148 | AFTMAENLANCTRLIEVEDMMVMG | 2.06
149 | AFTMAENLANCFRLIEVEDMMVMG | 2.22
150 | AFTMAENLANCIRLIEVEDMMVMG | 2.73
151 | AFTMAENLANCGRLIEVEDMMVMG | 2.06
152 | AFTMAENLANCDRLIEVEDMMVMG | 3.1
153 | AFTMAENLANCKRLIEVEDMMVMG | 2.46
154 | AFTMAENLANCRRLIEVEDMMVMG | 1.71
155 | AFTMAENLANCYRLIEVEDMMVMG | 2.13
156 | AFTMAENLQNCERLIEVEDMMVMG | 2.91
157 | AFTMAENLLNCERLIEVEDMMVMG | 2.06
158 | AFTMAENLHNCERLIEVEDMMVMG | 2.34
159 | AFTMAENLVNCERLIEVEDMMVMG | 2.71
160 | AFTMAENLINCERLIEVEDMMVMG | 1.89
161 | AFTMAENLSNCERLIEVEDMMVMG | 2.64
162 | AFTMAENLWNCERLIEVEDMMVMG | 1.39
163 | AFTMAENLMNCERLIEVEDMMVMG | 2.57
164 | AFTMAENLFNCERLIEVEDMMVMG | 1.81
165 | AFTMAENLTNCERLIEVEDMMVMG | 2.85
166 | AFTMAENLENCERLIEVEDMMVMG | 3.65
167 | AFTMAENLRNCERLIEVEDMMVMG | 2.31
168 | AFTMAENLPNCERLIEVEDMMVMG | 3.84

Row | Variant | protein stability index
169 | AFTMAENLYNCERLIEVEDMMVMG | 2
170 | AFTMAENLGNCERLIEVEDMMVMG | 3.16
171 | AFTMAENLNNCERLIEVEDMMVMG | 2.49
172 | AFTMAENLDNCERLIEVEDMMVMG | 4.18
173 | AFTMAENLKNCERLIEVEDMMVMG | 2.3
174 | AFTMAENLANCERLIYVEDMMVMG | 1.94
175 | AFTMAENLANCERLIMVEDMMVMG | 2.92
176 | AFTMAENLANCERLISVEDMMVMG | 1.89
177 | AFTMAENLANCERLIKVEDMMVMG | 1.89
178 | AFTMAENLANCERLIHVEDMMVMG | 1.97
179 | AFTMAENLANCERLIFVEDMMVMG | 2.14
180 | AFTMAENLANCERLINVEDMMVMG | 2.17
181 | AFTMAENLANCERLIAVEDMMVMG | 1.99
182 | AFTMAENLANCERLITVEDMMVMG | 1.72
183 | AFTMAENLANCERLIDVEDMMVMG | 3.2
184 | AFTMAENLANCERLICVEDMMVMG | 1.9
185 | AFTMAENLANCERLIRVEDMMVMG | 1.83
186 | AFTMAENLANCERLIPVEDMMVMG | 2.79
187 | AFTMAENLANCERLIQVEDMMVMG | 1.48
188 | AFTMAENLANCERLIGVEDMMVMG | 2.62
